From US20060154859A1

Biological target: mouse LEPRb (mouse), P48356
Assay: cell-based or functional assay

mouse LEPRb (mouse), P48356, sequence (P48356 22-1162): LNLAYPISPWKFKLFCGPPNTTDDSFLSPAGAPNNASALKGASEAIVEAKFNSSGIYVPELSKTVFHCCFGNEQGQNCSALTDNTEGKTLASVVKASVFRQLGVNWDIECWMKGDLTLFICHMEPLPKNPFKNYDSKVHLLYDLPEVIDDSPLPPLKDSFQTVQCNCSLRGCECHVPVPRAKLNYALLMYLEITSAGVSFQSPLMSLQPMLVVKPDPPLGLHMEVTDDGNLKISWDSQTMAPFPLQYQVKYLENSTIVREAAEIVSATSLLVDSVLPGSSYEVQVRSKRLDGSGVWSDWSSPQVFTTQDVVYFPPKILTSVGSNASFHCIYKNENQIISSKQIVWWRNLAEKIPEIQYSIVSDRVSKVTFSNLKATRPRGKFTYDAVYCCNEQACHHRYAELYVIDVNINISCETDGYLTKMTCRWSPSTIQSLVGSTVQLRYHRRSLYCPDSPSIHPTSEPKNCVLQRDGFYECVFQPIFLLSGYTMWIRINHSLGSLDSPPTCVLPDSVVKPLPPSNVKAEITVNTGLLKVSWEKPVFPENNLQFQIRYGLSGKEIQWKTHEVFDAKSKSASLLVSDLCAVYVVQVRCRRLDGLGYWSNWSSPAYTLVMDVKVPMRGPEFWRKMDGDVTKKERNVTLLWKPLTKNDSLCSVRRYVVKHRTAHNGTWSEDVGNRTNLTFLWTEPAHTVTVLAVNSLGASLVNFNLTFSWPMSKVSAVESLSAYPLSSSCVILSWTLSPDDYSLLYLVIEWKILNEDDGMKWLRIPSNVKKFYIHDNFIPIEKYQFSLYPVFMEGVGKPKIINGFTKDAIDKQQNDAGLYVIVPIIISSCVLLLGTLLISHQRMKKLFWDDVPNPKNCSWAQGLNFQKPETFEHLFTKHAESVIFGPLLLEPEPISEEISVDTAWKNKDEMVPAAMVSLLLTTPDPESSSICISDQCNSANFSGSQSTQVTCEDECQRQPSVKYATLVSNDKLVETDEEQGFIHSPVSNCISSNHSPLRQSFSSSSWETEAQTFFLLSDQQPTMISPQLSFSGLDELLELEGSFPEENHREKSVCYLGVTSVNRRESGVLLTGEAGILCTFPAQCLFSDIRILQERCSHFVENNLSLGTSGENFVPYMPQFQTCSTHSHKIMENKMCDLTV

inhibition of leptin-inducible transactivation of luciferase reporting gene in CHO cells transiently transfected with leptin receptor, stimulated with 6.25 nM human leptin: 10 nM
B1: human leptin L39A/D40A/F41A/I42A mutant, P41159 22-167 (ligand)
chain: VPIQKVQDDTKTLIKTIVTRINDISHTQSVSSKQKVTGAAAAPGLHPILTLSKMDQTLAVYQQILTSMPSRNVIRISNDLENLRDLLHVLAFSKSCHLPWASGLETLDSLGGVLEASGYSTEVVALSRLQGSLQDMLWQLDLSPGC
